Laboratory results as given in paper PMC5746249.

What was measured:
[1] = target: LC8 dynein light chain (DYNLL2), full-length, His6-tagged (UniProt Q96FJ2); experiment: SPR; ProteOn XPR36, HTG chip; His6-LC8 immobilised on Ni2+-NTA surface at three densities (1200, 900, 600 RU); peptides injected at five concentrations, 60 ul/min; 20 mM Hepes, 150 mM NaCl, 0.05% Tween-20, 0.1 mM TCEP, 50 uM EDTA, pH 7.5; 1:1 Langmuir model; Kd is the mean of the kinetic and the equilibrium analysis; apparent
[2] = target: LC8 dynein light chain (DYNLL2), full-length, His6-tagged (UniProt Q96FJ2); experiment: SPR; ProteOn XPR36, HTG chip; His6-LC8 immobilised on Ni2+-NTA at three densities (1200, 900, 600 RU); peptides injected at five concentrations, 60 ul/min, 400 s, dissociation 600 s; 20 mM Hepes, 150 mM NaCl, 0.05% Tween-20, 0.1 mM TCEP, 50 uM EDTA, pH 7.5; 1:1 Langmuir global fit; Kd is the mean of the kinetic and the equilibrium analysis, SD from three individual Kd values

Chain of LC8 dynein light chain (DYNLL2), full-length, His6-tagged (Q96FJ2 whole entry): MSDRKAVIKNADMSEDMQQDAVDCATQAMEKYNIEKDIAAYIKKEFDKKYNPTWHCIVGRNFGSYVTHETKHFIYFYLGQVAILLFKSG

Kd [1]	Kd [2]	Substance
1.2 µM		MPHOSPH9 LC8 binding motif peptide (motif start 909)
	1.2 µM	MPHOSPH9 LC8 binding motif peptide (start 909)
